{
  "source": "patent US20250271431A1",
  "binders": {"B1": {"name": "hcAb B10 (clone B10), camelid full length IgG2 heavy chain only antibody (antibody)", "heavy": "DVQLQESGGGLVQPGGSLRLSCAASGDINTIGTMNWFRQAPGKGREFVALITSGGTTNYADSVKGRFTVSRDNAKNTVYLQMNSLKPEDTAVYHCYGADHYSDYWGQGTQVTVSSEPKTPKPQPQPQPQPNPTTESKCPKCPAPELLGGPSVFIFPPKPKDVLSISGRPEVTCVVVDVGQEDPEVSFNWYIDGAEVRTANTRPKEEQFNSTYRVVSVLPIQHQDWLTGKEFKCKVNNKALPAPIEKTISKAKGQTREPQVYALAPHREELAKDTVSVTCLVKGFYPPDINVEWQRNRQPEPEGTYATTPPQLDNDGTYFLYSKLSVGKNTWQRGETFTCVVMHETLHNHYTQKSISQS"}},
  "experiment_in_all_cases": "RepliTope peptide microarray, Cy5 fluorescence",
  "key": {"[1]": {"target": "epitope sequence SEQ ID No 37 (…) (SARS-CoV-2)"}, "[2]": {"target": "epitope sequence SEQ ID No 19 (…) (SARS-CoV-2)"}, "[3]": {"target": "epitope sequence SEQ ID No 35 (…) (SARS-CoV-2)"}, "[4]": {"target": "epitope sequence SEQ ID No 18 (…) (SARS-CoV-2)"}, "[5]": {"target": "epitope sequence SEQ ID No 17 (…) (SARS-CoV-2)"}, "[6]": {"target": "epitope sequence SEQ ID No 15 (…) (SARS-CoV-2)"}},
  "data": [
    {"binder": "B1", "values": [
      {"measurement": "average signal intensity (mean pixel value)", "setting": "[1]", "result": 13900},
      {"measurement": "average signal intensity (mean pixel value)", "setting": "[2]", "result": 2400},
      {"measurement": "average signal intensity (mean pixel value)", "setting": "[3]", "result": 10500},
      {"measurement": "average signal intensity (mean pixel value)", "setting": "[4]", "result": 32800},
      {"measurement": "average signal intensity (mean pixel value)", "setting": "[5]", "result": 45000},
      {"measurement": "average signal intensity (mean pixel value)", "setting": "[6]", "result": 23000}
    ]}
  ]
}
